# Data published in paper PMC9352680, “A comprehensive thermodynamic model for RNA binding by the Saccharomyces cerevisiae Pumilio protein PUF4”.
# Residue numbers refer to the chain shown, from its start. Names may count otherwise.
# T1: PUF4 RNA-binding domain (Saccharomyces cerevisiae, UniProt P25339 537-888)
# T1 sequence: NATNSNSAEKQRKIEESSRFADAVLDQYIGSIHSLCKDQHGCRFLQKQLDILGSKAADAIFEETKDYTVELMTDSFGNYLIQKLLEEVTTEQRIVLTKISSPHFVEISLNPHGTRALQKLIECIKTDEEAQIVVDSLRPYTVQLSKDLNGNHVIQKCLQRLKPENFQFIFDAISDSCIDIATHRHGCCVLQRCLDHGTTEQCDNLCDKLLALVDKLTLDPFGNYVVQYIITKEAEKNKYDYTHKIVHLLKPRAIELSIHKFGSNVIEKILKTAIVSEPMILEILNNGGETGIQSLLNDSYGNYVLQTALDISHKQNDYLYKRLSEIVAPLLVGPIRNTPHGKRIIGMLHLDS
# B1: Ic_S4_P4E.1_K4.1_C4.1_H4.1_A4.1_[T5A]_[T7A]_F4.1_T4.1 (ssRNA)
# RNA: UUUGACAACUGAUCGUUCUUUCUUGUAAAAUAUUCUUUCUCGAUCAGUUGUCUUU
# B2: Ic_S4_P4E.1_K4.1_C4.1_H4.1_A4.1_[A6G]_[T7G]_F4.1_[T8C]_[A9C]_T4.1 (ssRNA)
# RNA: B1 RNA with A28U, A29G, A30G, U31C, A32C
# B3: Ic_S4_P4E.1_K4.1_C4.1_H4.1_A4.1_[A6G]_F4.1_[T8C]_[A9T]_T4.1 (ssRNA)
# RNA: B1 RNA with A28U, A29G, A30U, U31C, A32U
# B4: Ic_S4_P4E.1_K4.1_C4.1_H4.1_A4.1_[T5A]_[A6T]_F4.1_T4.1 (ssRNA)
# RNA: B1 RNA with A29U, A30U
# B5: Ic_S4_P4E.1_K4.1_C4.1_H4.1_A4.1_[T5A]_[A6T]_[T7C]_F4.1_[A9T]_T4.1 (ssRNA)
# RNA: B1 RNA with A29U, A30C, A32U
# B6: Ic_S4_P4E.1_K4.1_C4.1_H4.1_A4.1_[A6G]_[T7C]_F4.1_[T8C]_T4.1 (ssRNA)
# RNA: B1 RNA with A28U, A29G, A30C, U31C
# B7: Ic_S4_P4E.1_K4.1_C4.1_H4.1_A4.1_[T5A]_[A6T]_[T7A]_F4.1_[T8A]_[A9C]_T4.1 (ssRNA)
# RNA: B1 RNA with A29U, U31A, A32C
# B8: Ic_S4_P4E.1_K4.1_C4.1_H4.1_A4.1_[A6G]_[T7C]_F4.1_[T8A]_T4.1 (ssRNA)
# RNA: B1 RNA with A28U, A29G, A30C, U31A
# B9: Ic_S4_P4E.1_K4.1_C4.1_H4.1_A4.1_[T5A]_[T7C]_F4.1_[T8C]_[A9C]_T4.1 (ssRNA)
# RNA: B1 RNA with A30C, U31C, A32C
# B10: Ic_S4_P4E.1_K4.1_C4.1_H4.1_A4.1_[T5A]_[A6T]_[T7A]_F4.1_[A9C]_T4.1 (ssRNA)
# RNA: B1 RNA with A29U, A32C
# B11: Ic_S4_P4E.1_K4.1_C4.1_H4.1_A4.1_[A6G]_[T7C]_F4.1_[T8G]_[A9T]_T4.1 (ssRNA)
# RNA: B1 RNA with A28U, A29G, A30C, U31G, A32U
# B12: Ic_S4_P4E.1_K4.1_C4.1_H4.1_A4.1_[A6G]_[T7G]_F4.1_[T8C]_[A9G]_T4.1 (ssRNA)
# RNA: B1 RNA with A28U, A29G, A30G, U31C, A32G
# B13: Ic_S4_P4E.1_K4.1_C4.1_H4.1_A4.1_[T5A]_[A6T]_[T7A]_F4.1_[T8C]_T4.1 (ssRNA)
# RNA: B1 RNA with A29U, U31C
# B14: Ic_S4_P4E.1_K4.1_C4.1_H4.1_A4.1_[T5A]_[A6T]_F4.1_[T8A]_[A9T]_T4.1 (ssRNA)
# RNA: B1 RNA with A29U, A30U, U31A, A32U
# B15: Ic_S4_P4E.1_K4.1_C4.1_H4.1_A4.1_[T5A]_[A6T]_[T7A]_F4.1_[A9G]_T4.1 (ssRNA)
# RNA: B1 RNA with A29U, A32G
# B16: Ic_S4_P4E.1_K4.1_C4.1_H4.1_A4.1_[A6G]_F4.1_[T8A]_[A9C]_T4.1 (ssRNA)
# RNA: B1 RNA with A28U, A29G, A30U, U31A, A32C
# B17: Ic_S4_P4E.1_K4.1_C4.1_H4.1_A4.1_[A6G]_[T7C]_F4.1_[T8A]_[A9T]_T4.1 (ssRNA)
# RNA: B1 RNA with A28U, A29G, A30C, U31A, A32U
# B18: Ic_S4_P4E.1_K4.1_C4.1_H4.1_A4.1_[A6G]_F4.1_[T8A]_[A9G]_T4.1 (ssRNA)
# RNA: B1 RNA with A28U, A29G, A30U, U31A, A32G
# B19: Ic_S4_P4E.1_K4.1_C4.1_H4.1_A4.1_[A6G]_[T7G]_F4.1_[A9T]_T4.1 (ssRNA)
# RNA: B1 RNA with A28U, A29G, A30G, A32U
# B20: Ic_S4_P4E.1_K4.1_C4.1_H4.1_A4.1_[A6G]_F4.1_[T8G]_[A9G]_T4.1 (ssRNA)
# RNA: B1 RNA with A28U, A29G, A30U, U31G, A32G
# B21: Ic_S4_P4E.1_K4.1_C4.1_H4.1_A4.1_[T5A]_[A6T]_[T7A]_F4.1_[T8C]_[A9T]_T4.1 (ssRNA)
# RNA: B1 RNA with A29U, U31C, A32U
# B22: Ic_S4_P4E.1_K4.1_C4.1_H4.1_A4.1_[T5A]_[A6T]_[T7G]_F4.1_[T8C]_[A9T]_T4.1 (ssRNA)
# RNA: B1 RNA with A29U, A30G, U31C, A32U
# B23: Ic_S4_P4E.1_K4.1_C4.1_H4.1_A4.1_[T5A]_[T7A]_F4.1_[A9T]_T4.1 (ssRNA)
# RNA: B1 RNA with A32U
# B24: Ic_S4_P4E.1_K4.1_C4.1_H4.1_A4.1_[T5A]_[T7A]_F4.1_[T8A]_T4.1 (ssRNA)
# RNA: B1 RNA with U31A
# B25: Ic_S4_P4E.1_K4.1_C4.1_H4.1_A4.1_[A6G]_F4.1_[T8C]_[A9C]_T4.1 (ssRNA)
# RNA: B1 RNA with A28U, A29G, A30U, U31C, A32C
# B26: Ic_S4_P4E.1_K4.1_C4.1_H4.1_A4.1_[A6G]_[T7G]_F4.1_[T8C]_[A9T]_T4.1 (ssRNA)
# RNA: B1 RNA with A28U, A29G, A30G, U31C, A32U
# B27: Ic_S4_P4E.1_K4.1_C4.1_H4.1_A4.1_[T5A]_[A6T]_[T7C]_F4.1_[T8G]_[A9G]_T4.1 (ssRNA)
# RNA: B1 RNA with A29U, A30C, U31G, A32G
# B28: Ic_S4_P4E.1_K4.1_C4.1_H4.1_A4.1_[T5A]_[A6T]_[T7C]_F4.1_[T8A]_[A9G]_T4.1 (ssRNA)
# RNA: B1 RNA with A29U, A30C, U31A, A32G
# Target: T1, PUF4 RNA-binding domain
# Test: Mg; RNA-MaP; 20 mM Na-HEPES pH 7.4, 30 mM KOAc, 0.75 mM MgCl2, 0.1% Tween-20, 5% glycerol, 0.1 mg/mL BSA, 2 mM DTT; 25 C; 0.0125-409.6 nM protein
# Conditions: tags: N-His6-TEV cleaved; C-SNAP kept, Cy3B-labelled; label: tethered on chip by stalled RNA polymerase
row,Binder,Kd [nM]
1,B1,3.34
2,B2,1940
3,B3,74.2
4,B4,2.38
5,B5,34.8
6,B6,28.5
7,B7,314
8,B8,243
9,B9,455
10,B10,46.2
11,B11,261
12,B12,> 2300
13,B13,555
14,B14,56.2
15,B15,21.6
16,B16,85
17,B17,108
18,B18,186
19,B19,292
20,B20,180
21,B21,116
22,B22,518
23,B23,65
24,B24,202
25,B25,36.4
26,B26,624
27,B27,1920
28,B28,1080
29,UCUCUUUGUAUUUAAUCUCUU (ssRNA) [Ic_S1_P4E.1_K4.1_C4.1_H4.1_A4.1_[A6T]_F4.1_[T8A]_T4.1],66.5
